In publication PMC9731866 (The Journal of Biological Chemistry, 2022):

Target: the molecule itself
Test: SEC-MALS; low concentration (1 mg/ml); Superdex 200 10/300 GL, 24 °C, 10 mM Hepes pH 7.4, 200 mM NaCl, 5 mM β-ME; N counts the units (heterodimers or heterotetramers) in the oligomer

B1: αMγ heterodimer of HsIDH3 (α-Q139A with γ) (complex, human)
chain 1: TGGVQTVTLIPGDGIGPEISAAVMKIFDAAKAPIQWEERNVTAIQGPGGKWMIPSEAKESMDKNKMGLKGPLKTPIAAGHPSMNLLLRKTFDLYANVRPCVSIEGYKTPYTDVNIVTIRENTEGEYSGIEHVIVDGVVASIKLITEGASKRIAEFAFEYARNNHRSNVTAVHKANIMRMSDGLFLQKCREVAESCKDIKFNEMYLDTVCLNMVQDPSQFDVLVMPNLYGDILSDLCAGLIGGLGVTPSGNIGANGVAIFESVHGTAPDIAGKDMANPTALLLSAVMMLRHMGLFDHAARIEAACFATIKDGKSLTKDLGGNAKCSDFTEEICRRVKDLD
chain 2: FSEQTIPPSAKYGGRHTVTMIPGDGIGPELMLHVKSVFRHACVPVDFEEVHVSSNADEEDIRNAIMAIRRNRVALKGNIETNHNLPPSHKSRNNILRTSLDLYANVIHCKSLPGVVTRHKDIDILIVRENTEGEYSSLEHESVAGVVESLKIITKAKSLRIAEYAFKLAQESGRKKVTAVHKANIMKLGDGLFLQCCREVAARYPQITFENMIVDNTTMQLVSRPQQFDVMVMPNLYGNIVNNVCAGLVGGPGLVAGANYGHVYAVFETATRNTGKSIANKNIANPTATLLASCMMLDHLKLHSYATSIRKAVLASMDNENMHTPDIGGQGTTSEAIQDVIRHIRVINGRAVEA
notes: α subunit of human IDH3 (HsIDH3), Q139A; γ subunit of human IDH3 (HsIDH3); One α and one γ chain; the heterodimer is the unit that associates into the (αMγ)2 heterotetramer; also called α_(Q139A)γ; mutant αγ heterodimer; source: E. coli BL21 (DE3) Codon-Plus, co-expressed from pQlinkN-α-γ-tev-His6, purified (Ni-NTA, TEV cleavage, gel filtration); not shown: His6, C-terminal, cleaved
- stoichiometry N: 2
